T1: Tau(pS422) fragment SEQ ID NO: 03 (human)
T1 sequence (peptide, phosphoserine at position 7 (position 422 of SEQ ID NO, 01)): SIDMVDXPQLATLAD


Assays:
[1] = target: T1, Tau(pS422) fragment SEQ ID NO: 03 (human); assay: ELISA
[2] = target: T1, Tau(pS422) fragment SEQ ID NO: 03 (human); assay: SPR capture assay (Example 10), 25 C

EC50 [1] [µg/mL]	Kd [2] [nM]	koff [2] [s⁻¹]	kon [2] [M⁻¹ s⁻¹]	Binder
0.04	1.96	0.000265	135000	VH00/VL00 (antibody, V domains shown) VH: QSVEESGGRLVTPGTPLTLTCTVSGFSLSSNAINWVRQAPGKGLEWIGYIAVSGNTYYASWAKGRFTISKASTTVDLKMTSPTAEDTGTYFCGKSNIWGPGTLVTVSL VL: AQVLTQTTSPVSAAVGSTVTISCQSSQSVRTNKLAWFQQKPGQPPKRLIYSASTLDFGVPSRFSASGSGTQFTLTISDVQCDDAATYYCLGYFDCSIADCVAFGGGTEVVVK
0.0403	2.61	0.000628	240000	VH76A6/VL145B12 (antibody, V domains shown) VH: EVQVLESGGGLVQPGGSLRLSCAVSGFSLSNSAINWVRQAPGKGLEWVGYIAVSGNTYYASWAKGRFTISRDNSKNTVYLQMNSLRAEDTAVYYCGKSNIWGQGTLVTVSS VL: AQVMTQSPSSLSASVGDRVTITCRSSQSVRSNKLAWFQQKPGQPPKRLIYAASNLDFGVPSRFSGSGSGTEFTLTISSLQPEDFATYYCLGYFDSSADIVAFGGGTKVEIK

Reference: patent US20180079804A1
